The results in this text go back to the supplement of paper PMC9112550, “Optimization of the antimicrobial peptide Bac7 by deep mutational scanning” (BMC Biology, 2022).
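Note: peptides expressed intracellularly from a pBAD plasmid library in pooled LB shake-flask culture, induced with 0.3% L-arabinose, DNA abundance read by NGS, three biological replicates, DESeq2 with apeglm shrinkage.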

This series concerns Escherichia coli TOP10. Nature of the series: shrunken log2 fold change of peptide-encoding DNA abundance (4.5 h post-induction vs induction); higher = less antimicrobial activity (less host growth inhibition). The following applies: time post-induction: 4.5 h; library: site-saturation at positions 5, 18, 19, 20.
As to RRIRHRPPRLPRPRPRPIAMPRP, the “shrunken log2 fold change” value was -0.119. Turning to RRIRNRPPRLPRPRPRPFPWPRP, the “shrunken log2 fold change” value is -0.084. Then RRIRMRPPRLPRPRPRPLVGPRP, with 0.73; and RRIRQRPPRLPRPRPRPFCPPRP, with -0.236.

For the sequence RRIRKRPPRLPRPRPRPVTAPRP, the “shrunken log2 fold change” value came to 0.147. Turning to RRIRTRPPRLPRPRPRPYTTPRP, the “shrunken log2 fold change” value was -0.718. On to RRIRMRPPRLPRPRPRPGTDPRP, for which the “shrunken log2 fold change” value came to 1.19. As to RRIRLRPPRLPRPRPRPFDRPRP, the “shrunken log2 fold change” value is -0.38. Take RRIRSRPPRLPRPRPRPLFLPRP: the “shrunken log2 fold change” value is -0.00337.

Regarding RRIRGRPPRLPRPRPRPEEKPRP, the “shrunken log2 fold change” value was found to be 1.66. For the sequence RRIRARPPRLPRPRPRPSWKPRP, the “shrunken log2 fold change” value was 0.237. Turning to RRIRHRPPRLPRPRPRPKTPPRP, the “shrunken log2 fold change” value was 0.155. Consider RRIRRRPPRLPRPRPRPHWFPRP, for which the “shrunken log2 fold change” value was -0.198. Regarding RRIRGRPPRLPRPRPRPSEPPRP, the “shrunken log2 fold change” value came out at 0.413. Take RRIRMRPPRLPRPRPRPDINPRP: the “shrunken log2 fold change” value was 3.07. Then RRIRIRPPRLPRPRPRPRIYPRP, with 0.00994; and RRIRWRPPRLPRPRPRPGDHPRP, with -0.0565; and RRIRLRPPRLPRPRPRPFDVPRP, with -0.0798. With RRIRERPPRLPRPRPRPVDIPRP, the “shrunken log2 fold change” value was -0.105. Turning to RRIRMRPPRLPRPRPRPNVPPRP, the “shrunken log2 fold change” value is 0.0131. Then RRIRLRPPRLPRPRPRPWFAPRP, with -0.112. On to RRIRTRPPRLPRPRPRPISAPRP, for which the “shrunken log2 fold change” value turned out to be 0.259. With RRIRSRPPRLPRPRPRPAGFPRP, the “shrunken log2 fold change” value worked out at 0.262.

Consider RRIRNRPPRLPRPRPRPIWFPRP, for which the “shrunken log2 fold change” value is 0.205. Then RRIRRRPPRLPRPRPRPFSKPRP, with -0.348; and RRIRTRPPRLPRPRPRPWPDPRP, with -0.0269; and RRIRSRPPRLPRPRPRPKHHPRP, with -0.387.

For RRIRARPPRLPRPRPRPRIWPRP, the “shrunken log2 fold change” value is 0.164. For the sequence RRIRKRPPRLPRPRPRPKNDPRP, the “shrunken log2 fold change” value turned out to be 0.186. As to RRIRTRPPRLPRPRPRPCLNPRP, the “shrunken log2 fold change” value is -0.000349. Then RRIRERPPRLPRPRPRPWNKPRP, with -0.286; and RRIRLRPPRLPRPRPRPEDNPRP, with 0.0216. In the case of RRIRYRPPRLPRPRPRPQRYPRP, the “shrunken log2 fold change” value was -0.771. In the case of RRIRVRPPRLPRPRPRPVGEPRP, the “shrunken log2 fold change” value turned out to be 0.305. As for RRIRNRPPRLPRPRPRPGCQPRP, the figure is -0.108; as for RRIRWRPPRLPRPRPRPMSPPRP, 0.000834. Turning to RRIRTRPPRLPRPRPRPAHAPRP, the “shrunken log2 fold change” value worked out at 0.0759. As for RRIRHRPPRLPRPRPRPPWVPRP, the “shrunken log2 fold change” value was -0.101. As to RRIRIRPPRLPRPRPRPWCKPRP, the “shrunken log2 fold change” value is -0.284. In the case of RRIRVRPPRLPRPRPRPITPPRP, the “shrunken log2 fold change” value is 0.12. For RRIRKRPPRLPRPRPRPDWAPRP, the “shrunken log2 fold change” value was -0.0624.

For RRIRTRPPRLPRPRPRPPPPPRP, the “shrunken log2 fold change” value stood at 0.862. As for RRIRCRPPRLPRPRPRPHNHPRP, the figure is -0.625; as for RRIRGRPPRLPRPRPRPLMRPRP, 1.61; as for RRIRVRPPRLPRPRPRPFQHPRP, -0.131. Consider RRIRWRPPRLPRPRPRPIHMPRP, for which the “shrunken log2 fold change” value was -0.246. For the sequence RRIRKRPPRLPRPRPRPPNVPRP, the “shrunken log2 fold change” value stood at 0.197. As for RRIRPRPPRLPRPRPRPYWDPRP, the “shrunken log2 fold change” value was -0.376. Turning to RRIRCRPPRLPRPRPRPCIQPRP, the “shrunken log2 fold change” value amounted to 0.0591.

As for RRIRWRPPRLPRPRPRPKAYPRP, the “shrunken log2 fold change” value is -0.12.

As to RRIRLRPPRLPRPRPRPWLWPRP, the “shrunken log2 fold change” value was -0.106. RRIRDRPPRLPRPRPRPQGRPRP: the “shrunken log2 fold change” value was -0.0642. In the case of RRIRRRPPRLPRPRPRPKEMPRP, the “shrunken log2 fold change” value stood at 0.0252.

With RRIRMRPPRLPRPRPRPNAQPRP, the “shrunken log2 fold change” value worked out at 0.43. For RRIRERPPRLPRPRPRPRTPPRP, the “shrunken log2 fold change” value was determined as 0.214. Consider RRIRARPPRLPRPRPRPMVYPRP, for which the “shrunken log2 fold change” value was -0.0537.

With RRIRTRPPRLPRPRPRPCSEPRP, the “shrunken log2 fold change” value was -0.0314.

For RRIRNRPPRLPRPRPRPHLAPRP, the “shrunken log2 fold change” value came to 0.131. Turning to RRIRERPPRLPRPRPRPTKGPRP, the “shrunken log2 fold change” value was -0.184.

Turning to RRIRTRPPRLPRPRPRPAADPRP, the “shrunken log2 fold change” value turned out to be 0.453. As to RRIRVRPPRLPRPRPRPFGWPRP, the “shrunken log2 fold change” value turned out to be 0.372.

As to RRIRIRPPRLPRPRPRPPLTPRP, the “shrunken log2 fold change” value is -0.0194. Consider RRIRGRPPRLPRPRPRPWWQPRP, for which the “shrunken log2 fold change” value was found to be 0.644. Regarding RRIRTRPPRLPRPRPRPVNLPRP, the “shrunken log2 fold change” value is -0.0397. Then RRIRWRPPRLPRPRPRPRTIPRP, with -0.0129; and RRIRRRPPRLPRPRPRPSTDPRP, with -0.14; and RRIRGRPPRLPRPRPRPRVFPRP, with 1.02. As to RRIRRRPPRLPRPRPRPTKIPRP, the “shrunken log2 fold change” value was found to be 0.0521.

On to RRIRFRPPRLPRPRPRPNIEPRP, for which the “shrunken log2 fold change” value was -0.288. Regarding RRIRYRPPRLPRPRPRPMWMPRP, the “shrunken log2 fold change” value is -0.00149.

RRIRQRPPRLPRPRPRPRLDPRP: the “shrunken log2 fold change” value came to 0.205. Take RRIRGRPPRLPRPRPRPVFTPRP: the “shrunken log2 fold change” value stood at 0.523. As for RRIRDRPPRLPRPRPRPTVDPRP, the figure is 0.195; as for RRIRFRPPRLPRPRPRPEHAPRP, 0.243. With RRIRWRPPRLPRPRPRPQGCPRP, the “shrunken log2 fold change” value was found to be 0.0267. As to RRIRVRPPRLPRPRPRPQVIPRP, the “shrunken log2 fold change” value was -0.00246.

As for RRIRYRPPRLPRPRPRPSVMPRP, the “shrunken log2 fold change” value is -0.194. Take RRIRSRPPRLPRPRPRPQPRPRP: the “shrunken log2 fold change” value stood at 0.285. Then RRIRVRPPRLPRPRPRPNNSPRP, with -0.309; and RRIRWRPPRLPRPRPRPDGIPRP, with 0.151; and RRIRPRPPRLPRPRPRPSDFPRP, with -0.42. In the case of RRIRHRPPRLPRPRPRPMRFPRP, the “shrunken log2 fold change” value is -0.00752.

With RRIRPRPPRLPRPRPRPWNNPRP, the “shrunken log2 fold change” value was -0.561. With RRIRERPPRLPRPRPRPVPFPRP, the “shrunken log2 fold change” value was -0.229.

For RRIRWRPPRLPRPRPRPDRWPRP, the “shrunken log2 fold change” value was 0.827. For RRIRTRPPRLPRPRPRPHGHPRP, the “shrunken log2 fold change” value is -0.136. Consider RRIRWRPPRLPRPRPRPMYKPRP, for which the “shrunken log2 fold change” value is -0.0607. Take RRIRSRPPRLPRPRPRPGCQPRP: the “shrunken log2 fold change” value amounted to 0.287. Take RRIRLRPPRLPRPRPRPFNNPRP: the “shrunken log2 fold change” value is -0.426.

For RRIRKRPPRLPRPRPRPSNWPRP, the “shrunken log2 fold change” value is -0.00865.

Consider RRIRFRPPRLPRPRPRPAAYPRP, for which the “shrunken log2 fold change” value is -0.341. With RRIRKRPPRLPRPRPRPFDEPRP, the “shrunken log2 fold change” value was found to be 0.0269. With RRIRNRPPRLPRPRPRPHMVPRP, the “shrunken log2 fold change” value was -0.13. As for RRIRLRPPRLPRPRPRPNLYPRP, the “shrunken log2 fold change” value is -0.38.

For the sequence RRIRWRPPRLPRPRPRPGYNPRP, the “shrunken log2 fold change” value was -0.0807. Take RRIRKRPPRLPRPRPRPFYWPRP: the “shrunken log2 fold change” value was 0.144.

As to RRIRQRPPRLPRPRPRPVCLPRP, the “shrunken log2 fold change” value was -0.161. For RRIRDRPPRLPRPRPRPWRRPRP, the “shrunken log2 fold change” value amounted to 0.0906. As for RRIRQRPPRLPRPRPRPSQKPRP, the figure is 0.0595; as for RRIRIRPPRLPRPRPRPDGSPRP, -0.189.

On to RRIRERPPRLPRPRPRPNQGPRP, for which the “shrunken log2 fold change” value was -0.348. Consider RRIRKRPPRLPRPRPRPVCDPRP, for which the “shrunken log2 fold change” value turned out to be 0.683.

Take RRIRLRPPRLPRPRPRPVQFPRP: the “shrunken log2 fold change” value was -0.38. Then RRIRSRPPRLPRPRPRPNTSPRP, with -0.242; and RRIRDRPPRLPRPRPRPHTEPRP, with -0.0337. For the sequence RRIRVRPPRLPRPRPRPHWKPRP, the “shrunken log2 fold change” value was -0.14. With RRIRRRPPRLPRPRPRPQYCPRP, the “shrunken log2 fold change” value is -0.3. Then RRIRIRPPRLPRPRPRPHTTPRP, with 0.0536; and RRIRHRPPRLPRPRPRPPCHPRP, with -0.253; and RRIRLRPPRLPRPRPRPQQNPRP, with -0.241. Regarding RRIRGRPPRLPRPRPRPDSTPRP, the “shrunken log2 fold change” value came to 0.213.

Regarding RRIRQRPPRLPRPRPRPKMMPRP, the “shrunken log2 fold change” value is -0.082. For RRIRVRPPRLPRPRPRPMFDPRP, the “shrunken log2 fold change” value was -0.338.

Turning to RRIRQRPPRLPRPRPRPYKQPRP, the “shrunken log2 fold change” value turned out to be 0.0225.

Consider RRIRIRPPRLPRPRPRPDKLPRP, for which the “shrunken log2 fold change” value was -0.275. As to RRIRNRPPRLPRPRPRPNWWPRP, the “shrunken log2 fold change” value was -0.0262. As for RRIRNRPPRLPRPRPRPGIKPRP, the “shrunken log2 fold change” value was -0.192. Take RRIRIRPPRLPRPRPRPFTLPRP: the “shrunken log2 fold change” value stood at 0.0488. Consider RRIRMRPPRLPRPRPRPVLFPRP, for which the “shrunken log2 fold change” value worked out at 0.289. For RRIRFRPPRLPRPRPRPGCKPRP, the “shrunken log2 fold change” value was -0.222. RRIRLRPPRLPRPRPRPVDNPRP: the “shrunken log2 fold change” value is -0.491. In the case of RRIRYRPPRLPRPRPRPKMFPRP, the “shrunken log2 fold change” value was -0.845. In the case of RRIRTRPPRLPRPRPRPHDQPRP, the “shrunken log2 fold change” value amounted to 0.0187. As for RRIRGRPPRLPRPRPRPDPAPRP, the figure is 1.06; as for RRIRRRPPRLPRPRPRPPKFPRP, 0.298.
